Source: patent US20180038858A1

Experiments:
[1] = target: hCXCR1 (human) (UniProt P25024); test: cell-based or functional assay
[2] = target: CCR1, 3 and 5-expressing cells (chemokine receptor-expressing cells) (human); test: blood of a healthy donor passed through a column of biotinylated RANTES coupled streptavidin matrix; flow cytometry before and after
[3] = target: CCR7 (human) (UniProt P32248); test: cell-based or functional assay
CCR7 (human), sequence (P32248 25-378): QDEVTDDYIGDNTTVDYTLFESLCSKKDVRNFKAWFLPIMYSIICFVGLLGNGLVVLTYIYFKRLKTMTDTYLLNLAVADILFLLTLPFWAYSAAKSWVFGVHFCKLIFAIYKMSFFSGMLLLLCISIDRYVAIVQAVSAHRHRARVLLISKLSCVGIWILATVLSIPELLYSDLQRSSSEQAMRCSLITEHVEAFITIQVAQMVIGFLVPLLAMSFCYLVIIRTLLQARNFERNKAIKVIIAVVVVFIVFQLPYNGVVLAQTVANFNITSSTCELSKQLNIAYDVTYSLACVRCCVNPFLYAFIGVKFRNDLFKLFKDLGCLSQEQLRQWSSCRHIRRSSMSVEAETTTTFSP

hCXCR1 (human), sequence (P25024 whole entry): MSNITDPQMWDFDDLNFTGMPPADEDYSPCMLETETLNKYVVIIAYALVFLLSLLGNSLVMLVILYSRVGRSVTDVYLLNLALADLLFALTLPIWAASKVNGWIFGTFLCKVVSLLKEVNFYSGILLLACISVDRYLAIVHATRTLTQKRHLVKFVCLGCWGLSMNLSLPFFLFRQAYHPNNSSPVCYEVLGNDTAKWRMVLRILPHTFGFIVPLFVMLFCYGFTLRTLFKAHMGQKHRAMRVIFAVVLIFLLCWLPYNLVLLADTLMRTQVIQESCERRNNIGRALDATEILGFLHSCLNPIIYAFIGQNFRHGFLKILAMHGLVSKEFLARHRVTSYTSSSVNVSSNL
biotinRANTES (CCL5), RANTES derivatised at Lys(67) with Biotin, sequence (P13501 other isoform, or with tags, fused parts or gaps): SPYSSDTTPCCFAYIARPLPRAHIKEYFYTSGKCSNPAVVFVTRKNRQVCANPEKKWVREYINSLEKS

Row | Substance | EC50, agonist activity in an Aequorin assay [1] | further results
1 | biotinIL-8 (6-78), IL-8 (6-78) derivatised at Lys(78) with PEG-Biotin (from UniProt P10145 28-99) (ligand) | 6.1 nM | –
2 | biotinRANTES (CCL5), RANTES derivatised at Lys(67) with Biotin (from UniProt P13501 24-91) (ligand) | – | reduction of chemokine receptor-expressing cells by the column [2]: 20%
3 | recombinant native IL-8 (from UniProt P10145 28-99) (ligand) | 4.2 nM | –
4 | recombinant native MIP-3β (from UniProt Q99731 22-98) (ligand) | – | EC50, agonist activity in an Aequorin assay [3]: 1.6 nM
